This is an account of results in patent US20060015949A1.

Test [1] concerns the target recombinant soluble human CD4 (human) (UniProt P01730). As to the kind of experiment: SPR, sCD4 amine-coupled to sensor chip, mAb flowed over.
Test [2] shares this target. In words: BIAcore, rCD4 coupled to chip, mAb flowed over (avidity).
Test [3] shares this target. As to the kind of experiment: BIAcore on rCD4 (column repeats Table 19).
The target is the same in test [4]. As to the kind of experiment: ratio of Ka on rCD4 (BIAcore) to Ka on nCD4 (SupT1 flow cytometry).
Test [5] addresses native human CD4 on the cell surface (human) (UniProt P01730). In words: flow cytometry, serial dilutions on SupT1 cells, half-maximal fluorescence.
For test [6], the target named is recombinant soluble human CD4 (human) (UniProt P01730). In words: BIAcore, mAb captured by goat anti-human IgG Fc on chip, rCD4 flowed over (affinity).

With Leu3a (antibody), in test [1], the Ka was 3.7e+10 M⁻¹, the koff came out at 0.00042 s⁻¹ and the kon was found to be 150000 M⁻¹ s⁻¹. Moreover, in test [2], the Ka turned out to be 3.7e+10 M⁻¹, the koff turned out to be 4.2e-06 s⁻¹ and the kon was 150000 M⁻¹ s⁻¹.
For the substance chimeric Leu3a (antibody), the Ka in test [3] was determined as 3.4e+10 M⁻¹; in test [2] it was 3.4e+10 M⁻¹; in test [5], 5.6e+09 M⁻¹; in test [6] it was 6.6e+08 M⁻¹. The koff in test [2] is 1.2e-05 s⁻¹; in test [6], 0.00023 s⁻¹. Also, the kon in test [2] is 400000 M⁻¹ s⁻¹; in test [6] it was 150000 M⁻¹ s⁻¹. Also, the Ratio of Ka (rCD4/nCD4) in test [4] amounted to 6.1.
